In one test the target is T1, human NPY1 receptor (human, UniProt P25929 1-384).
T1 sequence (looked up): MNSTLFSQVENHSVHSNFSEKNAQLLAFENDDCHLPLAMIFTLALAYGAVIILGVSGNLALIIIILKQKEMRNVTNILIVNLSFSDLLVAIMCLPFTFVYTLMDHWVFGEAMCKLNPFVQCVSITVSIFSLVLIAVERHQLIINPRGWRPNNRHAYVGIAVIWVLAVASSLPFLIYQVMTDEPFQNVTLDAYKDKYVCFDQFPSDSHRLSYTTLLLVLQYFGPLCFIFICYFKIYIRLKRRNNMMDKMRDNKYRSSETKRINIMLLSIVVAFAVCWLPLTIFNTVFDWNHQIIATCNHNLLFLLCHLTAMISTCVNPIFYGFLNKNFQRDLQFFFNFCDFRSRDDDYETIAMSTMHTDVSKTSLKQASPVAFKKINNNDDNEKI
Nature of the test: cell-based or functional assay.

In the next test the target is human NPY4 receptor (human, UniProt P50391 1-375). Nature of the test: cell-based or functional assay.
human NPY4 receptor, sequence (P50391 whole entry): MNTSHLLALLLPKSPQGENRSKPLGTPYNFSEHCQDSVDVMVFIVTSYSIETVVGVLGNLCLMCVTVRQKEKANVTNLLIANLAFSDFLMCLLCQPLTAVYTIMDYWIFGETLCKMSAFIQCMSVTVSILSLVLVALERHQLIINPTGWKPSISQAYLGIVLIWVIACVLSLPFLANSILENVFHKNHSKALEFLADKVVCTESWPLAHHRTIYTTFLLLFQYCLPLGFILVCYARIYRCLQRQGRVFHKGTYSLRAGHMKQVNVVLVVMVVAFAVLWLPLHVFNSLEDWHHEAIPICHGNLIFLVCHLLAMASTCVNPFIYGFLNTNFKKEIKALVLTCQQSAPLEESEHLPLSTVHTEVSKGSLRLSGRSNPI
A further test concerns the target T2, human NPY5 receptor (human, UniProt Q15761 1-445).
T2 sequence (looked up): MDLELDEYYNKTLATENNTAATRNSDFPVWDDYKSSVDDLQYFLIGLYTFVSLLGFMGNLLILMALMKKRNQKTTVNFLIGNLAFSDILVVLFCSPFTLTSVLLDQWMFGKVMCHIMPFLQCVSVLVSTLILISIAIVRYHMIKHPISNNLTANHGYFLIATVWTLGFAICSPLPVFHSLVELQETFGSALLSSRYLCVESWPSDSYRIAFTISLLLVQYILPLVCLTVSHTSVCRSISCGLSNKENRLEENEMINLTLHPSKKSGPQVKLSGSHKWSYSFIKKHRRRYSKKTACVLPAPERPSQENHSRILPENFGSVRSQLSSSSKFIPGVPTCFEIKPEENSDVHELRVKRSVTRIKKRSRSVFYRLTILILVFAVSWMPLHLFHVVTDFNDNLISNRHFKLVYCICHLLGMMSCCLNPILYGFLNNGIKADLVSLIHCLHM
Nature of the test: cell-based or functional assay.

Test [1] has as its target T3, human NPY2 receptor (human, UniProt P49146 1-381).
T3 sequence (looked up): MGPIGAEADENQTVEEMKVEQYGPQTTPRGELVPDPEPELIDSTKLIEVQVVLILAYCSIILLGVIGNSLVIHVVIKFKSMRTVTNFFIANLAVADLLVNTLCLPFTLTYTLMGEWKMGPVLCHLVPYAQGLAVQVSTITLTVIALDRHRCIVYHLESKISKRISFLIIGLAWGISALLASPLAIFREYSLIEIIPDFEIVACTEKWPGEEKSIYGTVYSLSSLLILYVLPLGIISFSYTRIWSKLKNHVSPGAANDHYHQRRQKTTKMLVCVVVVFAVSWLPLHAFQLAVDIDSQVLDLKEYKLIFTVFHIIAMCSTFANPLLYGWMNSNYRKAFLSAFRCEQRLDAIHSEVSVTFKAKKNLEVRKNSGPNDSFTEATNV
Kind of test: cell-based or functional assay.

The target of test [2] is T3, human NPY2 receptor. Kind of test: RLB: displacement of 125I-PYY(1-36) from hNPY2R membranes.

*1 amine or outer side, *2 acyl side, *3 side chain or, on linkers, in order; H or OH if unused. Side-chain parts run from the residue outwards. The star is where a group is joined. C18 diacid = O=C(O)CCCCCCCCCCCCCCCCC(=O)*; γGlu = O=C(O)[C@H](CCC(=O)[*:2])N[*:1]; Isovaleryl = CC(C)CC(=O)*; Ahx = NCCCCCC(=O)O

B1: Compound 11 (peptide)
peptide: Isovaleryl-APEK([Ahx-γGlu-C18 diacid])PEADASPEEIQRYYISLRHYYNWLTRQRY-NH2
SMILES: CC[C@H](C)[C@H](NC(=O)[C@H](Cc1ccc(O)cc1)NC(=O)[C@H](Cc1ccc(O)cc1)NC(=O)[C@H](CCCNC(=N)N)NC(=O)[C@H](CCC(N)=O)NC(=O)[C@@H](NC(=O)[C@H](CCC(=O)O)NC(=O)[C@H](CCC(=O)O)NC(=O)[C@@H]1CCCN1C(=O)[C@H](CO)NC(=O)[C@H](C)NC(=O)[C@H](CC(=O)O)NC(=O)[C@H](C)NC(=O)[C@H](CCC(=O)O)NC(=O)[C@@H]1CCCN1C(=O)[C@H](CCCCNC(=O)CCCCCNC(=O)CC[C@H](NC(=O)CCCCCCCCCCCCCCCCC(=O)O)C(=O)O)NC(=O)[C@H](CCC(=O)O)NC(=O)[C@@H]1CCCN1C(=O)[C@H](C)NC(=O)CC(C)C)[C@@H](C)CC)C(=O)N[C@@H](CO)C(=O)N[C@@H](CC(C)C)C(=O)N[C@@H](CCCNC(=N)N)C(=O)N[C@@H](Cc1c[nH]cn1)C(=O)N[C@@H](Cc1ccc(O)cc1)C(=O)N[C@@H](Cc1ccc(O)cc1)C(=O)N[C@@H](CC(N)=O)C(=O)N[C@@H](Cc1c[nH]c2ccccc12)C(=O)N[C@@H](CC(C)C)C(=O)N[C@H](C(=O)N[C@@H](CCCNC(=N)N)C(=O)N[C@@H](CCC(N)=O)C(=O)N[C@@H](CCCNC(=N)N)C(=O)N[C@@H](Cc1ccc(O)cc1)C(N)=O)[C@@H](C)O
Consider B1, for which the “EC50, HTRF cAMP Gi assay” value in the test with human NPY1 receptor was above 5000 nM; with human NPY4 receptor, above 5000 nM; in the test with human NPY5 receptor it was above 5000 nM; with human NPY2 receptor [1] it was 0.136 nM. The molecule further had an inhibitory constant (Ki) in the test with human NPY2 receptor [2] of 1.4 nM.

B2: Compound 55 (peptide)
peptide: Isovaleryl-APEK([Ahx-γGlu-C18 diacid])PEEDASEEEIQRYYVSLRHYYNWLTRQRY-NH2
SMILES: CC[C@H](C)[C@H](NC(=O)[C@H](CCC(=O)O)NC(=O)[C@H](CCC(=O)O)NC(=O)[C@H](CCC(=O)O)NC(=O)[C@H](CO)NC(=O)[C@H](C)NC(=O)[C@H](CC(=O)O)NC(=O)[C@H](CCC(=O)O)NC(=O)[C@H](CCC(=O)O)NC(=O)[C@@H]1CCCN1C(=O)[C@H](CCCCNC(=O)CCCCCNC(=O)CC[C@H](NC(=O)CCCCCCCCCCCCCCCCC(=O)O)C(=O)O)NC(=O)[C@H](CCC(=O)O)NC(=O)[C@@H]1CCCN1C(=O)[C@H](C)NC(=O)CC(C)C)C(=O)N[C@@H](CCC(N)=O)C(=O)N[C@@H](CCCNC(=N)N)C(=O)N[C@@H](Cc1ccc(O)cc1)C(=O)N[C@@H](Cc1ccc(O)cc1)C(=O)N[C@H](C(=O)N[C@@H](CO)C(=O)N[C@@H](CC(C)C)C(=O)N[C@@H](CCCNC(=N)N)C(=O)N[C@@H](Cc1c[nH]cn1)C(=O)N[C@@H](Cc1ccc(O)cc1)C(=O)N[C@@H](Cc1ccc(O)cc1)C(=O)N[C@@H](CC(N)=O)C(=O)N[C@@H](Cc1c[nH]c2ccccc12)C(=O)N[C@@H](CC(C)C)C(=O)N[C@H](C(=O)N[C@@H](CCCNC(=N)N)C(=O)N[C@@H](CCC(N)=O)C(=O)N[C@@H](CCCNC(=N)N)C(=O)N[C@@H](Cc1ccc(O)cc1)C(N)=O)[C@@H](C)O)C(C)C
Consider B2, for which the “EC50, HTRF cAMP Gi assay” value with human NPY1 receptor is above 5000 nM; with human NPY4 receptor, above 5000 nM; in the test with human NPY5 receptor, above 5000 nM; with human NPY2 receptor [1], 0.352 nM. In addition, the Ki in the test with human NPY2 receptor [2] came out at 2.96 nM.

B3: Compound 196 (peptide)
peptide: Isovaleryl-APEK([Ahx-γGlu-C18 diacid])PEADASPEELQRYYVSLRHYYNWLTRQRY-NH2
SMILES: CC(C)CC(=O)N[C@@H](C)C(=O)N1CCC[C@H]1C(=O)N[C@@H](CCC(=O)O)C(=O)N[C@@H](CCCCNC(=O)CCCCCNC(=O)CC[C@H](NC(=O)CCCCCCCCCCCCCCCCC(=O)O)C(=O)O)C(=O)N1CCC[C@H]1C(=O)N[C@@H](CCC(=O)O)C(=O)N[C@@H](C)C(=O)N[C@@H](CC(=O)O)C(=O)N[C@@H](C)C(=O)N[C@@H](CO)C(=O)N1CCC[C@H]1C(=O)N[C@@H](CCC(=O)O)C(=O)N[C@@H](CCC(=O)O)C(=O)N[C@@H](CC(C)C)C(=O)N[C@@H](CCC(N)=O)C(=O)N[C@@H](CCCNC(=N)N)C(=O)N[C@@H](Cc1ccc(O)cc1)C(=O)N[C@@H](Cc1ccc(O)cc1)C(=O)N[C@H](C(=O)N[C@@H](CO)C(=O)N[C@@H](CC(C)C)C(=O)N[C@@H](CCCNC(=N)N)C(=O)N[C@@H](Cc1c[nH]cn1)C(=O)N[C@@H](Cc1ccc(O)cc1)C(=O)N[C@@H](Cc1ccc(O)cc1)C(=O)N[C@@H](CC(N)=O)C(=O)N[C@@H](Cc1c[nH]c2ccccc12)C(=O)N[C@@H](CC(C)C)C(=O)N[C@H](C(=O)N[C@@H](CCCNC(=N)N)C(=O)N[C@@H](CCC(N)=O)C(=O)N[C@@H](CCCNC(=N)N)C(=O)N[C@@H](Cc1ccc(O)cc1)C(N)=O)[C@@H](C)O)C(C)C
Regarding B3, the “EC50, HTRF cAMP Gi assay” value was above 5000 nM with human NPY5 receptor and 0.086 nM in the test with human NPY2 receptor [1]. This molecule showed an inhibition constant Ki with human NPY2 receptor [2] of 3.57 nM.

Turning to Isovaleryl-APEK([Ahx-γGlu-C18 diacid])PEAEASPEELQRYYVSLRHYYNWLTRQRY-NH2 [Compound 122], the “EC50, HTRF cAMP Gi assay” value in the test with human NPY1 receptor, with human NPY4 receptor and in the test with human NPY5 receptor was above 5000 nM each time. In addition, in the test with human NPY2 receptor [2], the affinity corresponds to a Ki of 2.73 nM.

B4: Compound 53 (peptide)
peptide: Isovaleryl-APEK([Ahx-γGlu-C18 diacid])PEEDAEPEEVQRYYVSLRHYYNWLTRQRY-NH2
SMILES: CC(C)CC(=O)N[C@@H](C)C(=O)N1CCC[C@H]1C(=O)N[C@@H](CCC(=O)O)C(=O)N[C@@H](CCCCNC(=O)CCCCCNC(=O)CC[C@H](NC(=O)CCCCCCCCCCCCCCCCC(=O)O)C(=O)O)C(=O)N1CCC[C@H]1C(=O)N[C@@H](CCC(=O)O)C(=O)N[C@@H](CCC(=O)O)C(=O)N[C@@H](CC(=O)O)C(=O)N[C@@H](C)C(=O)N[C@@H](CCC(=O)O)C(=O)N1CCC[C@H]1C(=O)N[C@@H](CCC(=O)O)C(=O)N[C@@H](CCC(=O)O)C(=O)N[C@H](C(=O)N[C@@H](CCC(N)=O)C(=O)N[C@@H](CCCNC(=N)N)C(=O)N[C@@H](Cc1ccc(O)cc1)C(=O)N[C@@H](Cc1ccc(O)cc1)C(=O)N[C@H](C(=O)N[C@@H](CO)C(=O)N[C@@H](CC(C)C)C(=O)N[C@@H](CCCNC(=N)N)C(=O)N[C@@H](Cc1c[nH]cn1)C(=O)N[C@@H](Cc1ccc(O)cc1)C(=O)N[C@@H](Cc1ccc(O)cc1)C(=O)N[C@@H](CC(N)=O)C(=O)N[C@@H](Cc1c[nH]c2ccccc12)C(=O)N[C@@H](CC(C)C)C(=O)N[C@H](C(=O)N[C@@H](CCCNC(=N)N)C(=O)N[C@@H](CCC(N)=O)C(=O)N[C@@H](CCCNC(=N)N)C(=O)N[C@@H](Cc1ccc(O)cc1)C(N)=O)[C@@H](C)O)C(C)C)C(C)C
For the molecule B4, the “EC50, HTRF cAMP Gi assay” value was above 5000 nM in the test with human NPY1 receptor, above 5000 nM in the test with human NPY4 receptor, above 5000 nM in the test with human NPY5 receptor and 0.352 nM with human NPY2 receptor [1]. In addition, the affinity in the test with human NPY2 receptor [2], expressed as Ki, was 3.07 nM.

The values above are taken from patent US20260015399A1 (Boehringer Ingelheim, published 2026).
